Results reported in patent publication US20200368363A1 (MAGENTA THEERAPEUTICS, published 2020).

T1: human CD2 on cells (MOLT-4 human T lymphoblast cells; primary human T-cells; primary human NK cells) (human, UniProt P06729 25-351)
T1 sequence: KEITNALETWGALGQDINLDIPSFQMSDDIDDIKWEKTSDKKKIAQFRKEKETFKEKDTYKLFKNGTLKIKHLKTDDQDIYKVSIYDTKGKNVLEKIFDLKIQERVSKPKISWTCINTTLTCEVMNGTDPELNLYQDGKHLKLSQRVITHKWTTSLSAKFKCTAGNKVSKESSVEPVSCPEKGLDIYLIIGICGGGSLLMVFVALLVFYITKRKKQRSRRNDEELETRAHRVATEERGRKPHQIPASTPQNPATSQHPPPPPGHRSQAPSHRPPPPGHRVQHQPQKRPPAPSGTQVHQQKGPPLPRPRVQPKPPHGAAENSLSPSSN


Tests used:
[1] = biological target: human CD2 on cells (MOLT-4 human T lymphoblast cells; primary human T-cells; primary human NK cells) (human) (UniProt P06729); assay: flow cytometry on MOLT-4 cells, anti-mouse AF488 secondary, 4 C
[2] = biological target: T1, human CD2 on cells (MOLT-4 human T …); assay: cell-based or functional assay

Molecule | EC50 [1] [nM] | NK cell viability (CellTiter-Glo), in vitro NK-cell killing assay, IC50 [2] [nM]
TS1/8 (antibody) | 0.125 | –
anti-CD2-amanitin ADC (RPA-2.10-AM), interchain, average drug-to-antibody ratio 6 (antibody, V domains shown) VH: EVKLVESGGGLVKPGGSLKLSCAASGFTFSSYDMSWVRQTPEKRLEWVASISGGGFLYYLDSVKGRFTISRDNARNILYLHMTSLRSEDTAMYYCARSSYGEIMDYWGQGTSVTVSS VL: DILLTQSPAILSVSPGERVSFSCRASQRIGTSIHWYQQRTTGSPRLLIKYASESISGIPSRFSGSGSGTDFTLSINSVESEDVADYYCQQSHGWPFTFGGGTKLEIER | – | 0.0052
